Data on four molecules can be found in PMC12310515 (2025).

First the molecules themselves.
B3: KIR2DL1 (residues 27-221) (domain or fragment)
chain: RKPSLLAHPGRLVKSEETVILQCWSDVMFEHFLLHREGMFNDTLRLIGEHHDGVSKANFSISRMTQDLAGTYRCYGSVTHSPYQVSAPSDPLDIVIIGLYEKPSLSAQLGPTVLAGENVTLSCSSRSSYDMYHLSREGEAHERRLPAGPKVNGTFQADFPLGPATHGGTYRCFGSFHDSPYEWSKSSDPLLVSVT
modifications: N-linked glycan on N67 (N-acetylglucosamine-fucose core seen in the structures)
B4: KIR2DS1 (SPR protein) (receptor)
chain: HEGVHRKPSLLAHPGRLVKSEETVILQCWSDVMFEHFLLHREGMFNDTLRLIGEHHDGVSKANFSISRMKQDLAGTYRCYGSVTHSPYQLSAPSDPLDIVIIGLYEKPSLSAQPGPTVLAGENVTLSCSSRSSYDMYHLSREGEAHERRLPAGTKVNGTFQANFPLGPATHGGTYRCFGSFRDSPYEWSKSSDPLLVSVTGNPSNSWPSPTEPSSETGNPRHLH

Like-named read-outs stand apart in the source and are kept apart here.

Common to all, as to assay: SPR
Test [1] has as its target B3.
In the test “KIR2DS1 (SPR protein)” the target is B4.
Test [2] addresses T1, SEN-08 (P. falciparum pfSN01).
The target in test [3] is one of the six Kenyan RIFINs (pfKE01) that bound to LILRB1.
The target in test [4] is T2, KEN-02 (P. falciparum pfKE01).
Test [5] addresses T3, KEN-06 (P. falciparum pfKE01).
Test [6] concerns the target T4, KEN-04 (P. falciparum pfKE01).
The target of test [7] is T5, SEN-01 (P. falciparum pfSN01).
For test [8], the target named is T6, SEN-12 (P. falciparum pfSN01).
Test [9] addresses T2, KEN-02. The source holds these as a separate data set.
In test [10] the target is T1, SEN-08. This is another data set of the same source.
The target in test [11] is T3, KEN-06. The source holds these as a separate data set.
In test [12] the target is T4, KEN-04. This is another data set of the same source.
Test [13] concerns the target T5, SEN-01. This is another data set of the same source.
In test [14] the target is T6, SEN-12. The source holds these as a separate data set.

B1: KEN-01 (mFc-tagged, SPR) (natural protein)
chain: AKGAAAAEAARIPAAIDAVIKGIVTKFGVSTESVQGLKSLFTANTYNDVTKIARAINEQYNPSSCLTGGSGADNSICPWAMENFFAARKIPGFIQREAVSMNDVIEKTVKTIVSDAPKTAETAAKKATEG
Regarding B1, the results for the Kd (in test [1]; in the test with KIR2DS1 (SPR protein)) were 0.1 µM and 0.3 µM, respectively.

B2: LILRB1 (receptor)
chain: GHLPKPTLWAEPGSVITQGSPVTLRCQGGQETQEYRLYREKKTALWITRIPQELVKKGQFPIPSITWEHAGRYRCYYGSDTAGRSESSDPLELVVTGAYIKPTLSAQPSPVVNSGGNVILQCDSQVAFDGFSLCKEGEDEHPQCLNSQPHARGSSRAIFSVGPVSPSRRWWYRCYAYDSNSPYEWSLPSDLLELLVLGVSKKPSLSVQPGPIVAPEETLTLQCGSDAGYNRFVLYKDGERDFLQLAGAQPQAGLSQANFTLGPVSRSYGGQYRCYGAHNLSSEWSAPSDPLDILIAGQFYDRVSLSVQPGPTVASGENVTLLCQSQGWMQTFLLTKEGAADDPWRLRSTYQSQKYQAEFPMGPVTSAHAGTYRCYGSQSSKPYLLTHPSDPLELVVSGPSGGPSSPTTGPTSTSGPEDQPLTPTGSDPQSGLGRHLGVVIGILVAVILLLLLLLLLFLILRHRRQGKHWTSTQRKADFQHPAGAVGPEPTDRGLQWRSSPAADAQEENLYAAVKHTQPEDGVEMDTRSPHDEDPQAVTYAEVKHSRPRREMASPPSPLSGEFLDTKDRQAEEDRQMDTEAAASEAPQDVTYAQLHSLTLRREATEPPPSQEGPSPAVPSIYATLAIH
In the case of B2, the Kd was determined as 5.5 µM with SEN-08 [2] and 2.6 µM in test [3].

In the case of B3, the dissociation constant (Kd) with KEN-02 [4] came to 2.2 µM; with SEN-08 [2] it was 3.5 µM; in the test with KEN-06 [5], 0.4 µM; with KEN-04 [6], 2 µM; with SEN-01 [7], 3.4 µM; in the test with SEN-12 [8], 0.4 µM.

As for B4, the Kd came to 2.6 µM with KEN-02 [9]; 2.1 µM with SEN-08 [10]; 0.9 µM with KEN-06 [11]; 5.4 µM with KEN-04 [12]; 1.1 µM with SEN-01 [13]; 0.5 µM with SEN-12 [14].
